Molecular target: GST–BIR3 fusion protein (XIAP BIR3 domain)
Assay: FMAT bead-based fluorescence competition assay

- IC50: > 10 µM
Substance: Smac N-terminal tripeptide AVP (compound 5)
